The nature of this data set: soluble on expression in E. coli; label from the status in PepcDB or PDB records.
For “MALNDFHVSEPYTLGIELEMQVINPPGYDLSQDSSTLIDAVKPQLTAGEIKHDITESMLEMATGVCRDIDQAAAQLSAMQHVILQAASEHHLGICGGGTHPFQKWQRQEVCDNERYQRTLENFGYLIQQATVFGQHVHVGCANGDDAIYLLHGLSHFVPHFIALSAASPYMQGADTRFACARLNIFSAFPDNGPMPWVSNWQEFAGLFRRLSYTTMIDSIKDLHWDIRPSPAFGTVEVRVMDTPLTLDHAINMAGLIQATAHWLLTERPFKPQEQDYLLYKFNRFQACRYGLEGVLTDAYTGDRRRLADDTLRLLDNVTPSARKLGADSAIDALRLQVKKGGNEAQYMREFIADGGSLIGLVQKHCEIWAGQ”, the “soluble on expression in E. coli” value is on record as “soluble”.

As for “MSLYLWNIQISSAFLEVISLYEVTLRNTLVKALEPNYRQYSILNDNFIRALRHETREALIVAVNKVSLNSHKYSAVRGAHGMIQPLKIDPRDVPVGKVVAELNFVFWENMLSKTHSSRWKAHYKEAFPNLVVEPNIGIECQIARIHQITGKVRELRNRICHHEPIFDENKINLSELYTQIKEVLNYISRLDKYTKEGHHHHHH”, the “soluble on expression in E. coli” value is recorded as “not soluble”.

Regarding “GPGSMLRPTCPVAKNLTSFATKGTMRGGIPRIYYTWMKPGSATRRRFEKMRNPFVNLETGTSLYFRDTRDSAEAVAHAADSKGLKGMDNGVDLYNEYKIVPDLYPEGFQWKHKLNTEYNQWRSNTWLTPELIPQEHRGRFLCNFQLNIVAYDMRVVKFSPKDHRQWIYCVLYVGTGKGIAGFGRAVAPSTQEARNEAIREAFSNIIAVDLEQEGPMYPVRINADGARVLLYPARRIIANFRVADILCAFGFQNAGCKINLKASNNPKAPTHTVEGVFEAVKALRSVSEIAASRGKVPHSLVYNIYPYLEEMRRRKGMMAMHPPGKDGIFMPNRVVDNRMPDHLKKGYYDDVYWKDFFAGSKEQLNEPKMGLRGDELRAQLEESQGRTAKRSNRRTLDDVLRRLGKTSRDLGALQVVNPRLDAKLPTHMKRNYLLH”, the “soluble on expression in E. coli” value was “not soluble”.

As to “MDTTIGVIGNKVVHVIKENDSVKTAAEEMKKHNLGALVVIDDNDKIVGIITERDIVKVVAEGKLDAKVKDYMTRNVIGVTEDTPITDALEIMLDHGFRHLPIIGKDGKVIGIVSIRDLSKAILDPHFFQFKKEAADVKGSGYVCPVCGMEIDEYGYCGCGAGSG”, the “soluble on expression in E. coli” value is “soluble”.

Take “MSVDSEETSSNGVVPPNSLPPKPEARFGRHVRSFSVDSDFFDDLGVTEEKFIATSSGEKKKGNHHHSRSNSMDGEMSSASFNIESILASVSGKDSGKKNMGMGGDRLAELALLDPKRAKRILANRQSAARSKERKIRYTGELERKVQTLQNEATTLSAQVTMLQRGTSELNTENKHLKMRLQALEQQAELRDALNEALRDELNRLKVVAGEIPQGNGNSYNRAQFSSQQSAMNQFGNKTNQQMSTNGQPSLPSYMDFTKRG”: the “soluble on expression in E. coli” value was “soluble”.

In the case of “MSLKEEEIQNDFMFEEYHKGDKIVLNSVNGGSKTLIRTDKGFVVEGEEGKVLMFDFFGTFCTPCKEEALDLSKLWKNNSSKFIIIGLTHFEDVSDETVKKFAGDYGAYYFLSNGSSNDRIIAQILKDIDYQNMEQLPFKVVLKNGIYQKISDYWNNNTPTNFYLGKIPTELMQEDLNKIYKGKEGHHHHHH”, the “soluble on expression in E. coli” value is listed as “soluble”.

Turning to “MGSDKIHHHHHHMRYPEGMALQNKFPILWDCFLQRINDALKATTQEELGRRLGVGKSAITKWRHGSTRGADLQDFLRYCDVLGIDFCGIINGTPTPTYSPSPFEIALTGVLDSFLSVHNLTHEKAASSLWPETANGAAKLGSILTAKEPLTPEVLMQLCLLMEEDPGKLLRLARERVQPEGEQISGNAKSA”, the “soluble on expression in E. coli” value is reported as “not soluble”.

Take “ADILLLDNIDSFTWNLADQLRTNGHNVVIYRNHIPAQTLIDRLATMKNPVLMLSPGPGVPSEAGCMPELLTRLRGKLPIIGICLGHQAIVEAYGGYVGQAGEILHGKATSIEHDGQAMFAGLANPLPVARYHSLVGSNVPAGLTINAHFNGMVMAVRHDADRVCGFQFHPESILTTQGARLLEQTLAWAQQK”: the “soluble on expression in E. coli” value was “soluble”.

For “MATGGLAIIQSMKHKLPPSERKLADYILAHPHKAIESTVNEISALANSSDAAVIRLCKSLGLKGFQDLKMRVAGDLAKPTFQGYRDIVPHEPLPSISEKTAGNAIQAI”, the “soluble on expression in E. coli” value was “soluble”.

As to “LGFFNRIEKTEKDKSQIDFGSIHGTGWLIDWKEVDKKDKKANKFTVYLATNLHVIQALKNREDHPPYNQFDINFVRTVDFRIGKYTDVKQFVAPS”, the “soluble on expression in E. coli” value is given as “not soluble”.

Regarding “MSLSYTKIFGLGGVHEIGKSTLVIHHEKSIAIIDAGIKFADSSTTGLHGIIPNYSYLKKHEDQIEGIFVTHGHEDHIGGIIYLLQQVKINKIFAPKIAIEYLKYKLEDRGLRIKVEFIEIKKDDTHHLGSLVVDFWTAQHSIPDAFGIRVKTPDGSVLCTGDFRIDYRPIGNYTDFSKLEQIGKEGLTLLLSDSTNAMRPNHSPSENDILKDIEKIMLAAKRKIIITTFASNLIRIKVIIELAEKLNKKIAVFGRSMVNGIAIGKELGYIKTPDSSFIDKKSIDQYEDKDIVILTTGSQGEQLAALSRMSYEKHPQVSIRKNDTIIFSSSPIPGNKMKIELLINRLYKLGAIIKENGVDGYLHTSGHAYQEEHEKIFSIAKPKYFFPYHGEYRMSVVHGQTAIRSGVKPENVIIPGIGEVVKMEEGHHHHHH”, the “soluble on expression in E. coli” value is “not soluble”.

Regarding “MENRGILFDKDGTCIRFDTLWQAGLQACFETLSMLAPHHSAEIKKILAIQEQRFLQKHLLDEVLYQELYQELAQFEELVEQGISSRWLEQFFYDYLRKNLKKIEPIGDLKQLFLELKRKNYKIGLATSDTLPATMLIMEYLGLTEMFDFIATGDRYLPKPDADMLQAFCQSCQLKATEVIMVGDSLVDVFMGTCHGKAGIGVLTGNCQSTDFEKFEVAYFRDIHEIPYQELWENTKKKKIYYF”, the “soluble on expression in E. coli” value is “not soluble”.

“MHHHHHHMTSVMSHEFQLATAETWPNPWPMYRALRDHDPVHHVVPPQRPEYDYYVLSRHADVWSAARDHQTFSSAQGLTVNYGELEMIGLHDTPPMVMQDPPVHTEFRKLVSRGFTPRQVETVEPTVRKFVVERLEKLRANGGGDIVTELFKPLPSMVVAHYLGVPEEDWTQFDGWTQAIVAANAVDGATTGALDAVGSMMAYFTGLIERRRTEPADDAISHLVAAGVGADGDTAGTLSILAFTFTMVTGGNDTVTGMLGGSMPLLHRRPDQRRLLLDDPEGIPDAVEELLRLTSPVQGLARTTTRDVTIGDTTIPAGRRVLLLYGSANRDERQYGPDAAELDVTRCPRNILTFSHGAHHCLGAAAARMQCRVALTELLARCPDFEVAESRIVWSGGSYVRRPLSVPFRVTSSR”: the “soluble on expression in E. coli” value was “soluble”.

For “GALLHQRDQDMLVSILDLEKVSVEDIMIPRSDLVGIDVNDDWKKIQKQLTQANHTRVLLYRDSIDDVVGYIHARDALKLLSKNQFNKATLLRAVRELYFVPEGTPLNIQLLKFQHAKERIGLVVDEYGDIQGLVTLEDILEEIVGDFT”, the “soluble on expression in E. coli” value was “not soluble”.

In the case of “MSLDVDSKTLIHAGKLIDGKSDQVQSRISIVIDGNIISDIKKGFISSNDFEDYIDLRDHTVLPGLMDMHVHFGQEYQSKAQAPIKVEREMQAILATQHAYVTFKSGFTTVRQVGDSGLVAISLRDAINSGKLAGPRIFAAGKTIATTGGHADPTNGKAVDDYDYPVPEQGVVNGPYEVYAAVRQRYKDGADGIKITVTGGVLSVAKSGQNPQFTQEEVDAVVSAAKDYGMWVAVHAHGAEGMKRAIKAGVDSIEHGTFMDLEAMDLMIENGTYYVPTISAGEFVAEKSKIDNFFPEIVRPKAASVGPQISDTFRKAYEKGVKIAFGTDAGVQKHGTNWKEFVYMVENGMPAMKAIQSATMETAKLLRIEDKLGSIESGKLADLIAVKGNPIEDISVLENVDVVIKDGLLYEGHHHHHH”, the “soluble on expression in E. coli” value is reported as “soluble”.

With “MGSDKIHHHHHHMKDMTNLDNFEVGFDIPAKPGMDAAEIQTPCLVLDLDALERNVKKMGDYAKAHGMRHRVHGKMHKSVDVAKLQERLGGAVGVCCQKVSEAEVFVRGGIKDVLVSNQVRDPLKIDRLAQLPKLGSRIIVCVDDLANVADLSAAALRHGTELEVLIEIDCGAGRCGVGTTQDVVAIARAVDAAENLKFTGIQAYQGAMQHLDKYEDRKAKLDIAIEMVESAVQGLKAVGLDPELVSGGGTGSYYFEANSGVYNELQCGSYAFMDADYGRILDQNGQRIDKGEWENAMFILTQVMSHAKADKAIVDAGLKAQSVDSGLPFVHGRDDVEYIKCSDEHGVVADPNGVLKVGDKLRLVPGHCDPTANVHDWYVGVRGGKVECVWPVSARGKAY”, the “soluble on expression in E. coli” value is reported as “not soluble”.

On to “MSLGRPAPFKVGALNSITGAGGTYGPGMLEAIKIGIAEVNAAGGAAGRELKLYAEDDQTRPDAAVLAARKLVDIQHVDAMIGIWSSAVQLATLPITNAAGILSFNTCGAPEIRTEDKRDLVFQFYASNAIIGAAFAAIGQRLGYKRAAVLGYNNATMSVQANHFKAAWEKKGNQIVSSAIYEPNQATYRTEVEKAVAAKPDVIVLSSYTPDATILLKEWYQTGYECKFIMPGYSATPALIKALGPDVMRNIVSTANVPASDNQAYKAFVEKFQAVTKSPPEMFAAAAYDMVITLALAIEAAGPDAKPADLSALVRQVSNPPGQKVSSFVQGRDLLRQKAKIDFDGASSSLDFDANGDTVPDFGIYEFDGKAFALKDVVPGATEGHHHHHH”, for which the “soluble on expression in E. coli” value is reported as “soluble”.

As to “DVTNAEKLVYKYTNIAHSANPMYEAPSITDGKIFFNRKFKTPSGKEAACASCHTNNPANVGKNIVTGKEIPPLAPRVNTKRFTDIDKVEDEFTKHCNDILGADCSPSEKANFIAYLLTETKPTK”, the “soluble on expression in E. coli” value is “soluble”.

Regarding “MAQKVEAGGGAGGASWDDGVHDGVRKVHVGQGQDGVSSINVVYAKDSQDVEGGEHGKKTLLGFETFEVDADDYIVAVQVTYDNVFGQDSDIITSITFNTFKGKTSPPYGLETQKKFVLKDKNGGKLVGFHGRAGEALYALGAYFATTTTPVTPAKKLSAIGGDEGTAWDDGAYDGVKKVYVGQGQDGISAVKFEYNKGAENIVGGEHGKPTLLGFEEFEIDYPSEYITAVEGTYDKIFGSDGLIITMLRFKTNKQTSAPFGLEAGTAFELKEEGHKIVGFHGKASELLHQFGVHVMPLTN”, the “soluble on expression in E. coli” value was “soluble”.

For “MGRLGWVDPESFMQRNHELMDAYSAGKLAMEEFMAFSLEPMAGRTPEEVDHLVGPWVEDVIEPIIYSDACKCIAQHRAKGDRILVISASGVHLVKPIAERLGIDEVLGIELDVQHGVYSGATVGVLTYREGKITRLMEWLDAEGENLEGASFYSDSRNDLPLLLKVDHPNVVNPDPVLLEHAQQAGWPVHTWV”, the “soluble on expression in E. coli” value was “not soluble”.

As for “MDNCLAAAALNGVDRRSLQRSAKLALEVLERAKRRAVDWHALERPKGCMGVLAREAPHLEKQPAAGPQRVLPGEREERPPTLSASFRTMAEFMDYTSSQCGKYYSSVPEEGGATHVYRYHRGESKLHMCLDIGNGQRKDRKKTSLGPGGSYQISEHAPEASQPAENISKDLYIEVYPGTYSVTVGSNDLTKKTHVVAVDSGQSVDLVFPVLEHHHHHH”, the “soluble on expression in E. coli” value is “soluble”.

Consider “MGSMRICIFMARGLEGCGVTKFSLEQRDWFIKNGHEVTLVYAKDKSFTRTSSHDHKSFSIPVILAKEYDKALKLVNDCDILIINSVPATSVQEATINNYKKLLDNIKPSIRVVVYQHDHSVLSLRRNLGLEETVRRADVIFSHSDNGDFNKVLMKEWYPETVSLFDDIEEAPTVYNFQPPMDIVKVRSTYWKDVSEINMNINRWIGRTTTWKGFYQMFDFHEKFLKPAGKSTVMEGLERSPAFIAIKEKGIPYEYYGNREIDKMNLAPNQPAQILDCYINSEMLERMSKSGFGYQLSKLNQKYLQRSLEYTHLELGACGTIPVFWKSTGENLKFRVDNTPLTSHDSGIIWFDENDMESTFERIKELSSDRALYDREREKAYEFLYQHQDSSFCFKEQFDIITK”, for which the “soluble on expression in E. coli” value was “soluble”.

(Values after the DeepSol protein solubility set.)
